What is called Kd is a measure of binding affinity in units of concentration.

This is an account of results in patent US11905559B2, “Materials and methods for controlling gene expression” (priority 2016, dated 2024).

One series has as its target guanine-riboswitch. Conditions: previous in-line measurements; cited from earlier work.
The nature of series [1]: Force-ramp mechanical assay of the full-length xpt leader mRNA. It is filed as physicochemical. From the text:
A dual-beam high-resolution optical tweezers was built that can detect short-lived fluctuations at sub-milliseconds (<0.25 msec) time scale at a single base pair level, with high precision and accuracy. This instrument was used to investigate the conformational dynamics of the full-length (FL) guanine-responsive riboswitch (guanine-riboswitch) and its 69-nt aptamer domain present in the 5′-UTR of an xpt-pbuX operon in B. subtilis. It has been shown that the xpt leader mRNA selectively downregulates the gene expression by transcription termination in the presence of guanine (FIG. 17B). The FL xpt mRNA was subjected to mechanical assays in order to identify the terminator and an anti-terminator conformation. […] The unfolding trajectory (red curve) indicated the melting of the 35-nt terminator hairpin at 16.1±0.5 pN (n=1200 traces) with a transition distance, ΔXt˜15±3 nm. A second transition at 17.9±0.9 pN with a distance, ΔXa˜25-30 nm indicated the unfolding of the 69-nt aptamer. […] The terminator mutant (FL-mutant, FIGS. 17D-E) abolished the 16.0 pN transition, thus supporting the structural assignment.
The forces on the bead were recorded at an acquisition rate of 44 kHz. Data was collected from the stereo phone jacks on the ADC boards of the Tweezers instrument and sent to the host computer audio input for analysis by SignalScope program (Faber Acoustical, LLC). As shown in the plot, power spectral density is fitted with the Lorentzian fit to yield the corner frequency (fc) that was used to calculate the trap stiffness. This setup was used to perform three different mechanical reactions: force-ramp (FR), constant-force (CF) and force-jump (FJ) under a controlled force. In the force-ramp (FR) experiment, the trap was moved at 200 nm/s, which corresponded to a loading rate 7-8 pN/s. […] The force-ramp data is plotted as force vs. extension curves (FEC).

Series [2] in a line: Constant-force / force-jump assay of the full-length riboswitch RNA. It is filed as physicochemical. From the text: Moreover, as the successive traces were not reproducible, the anti-terminator conformation could not be assigned to the transitions. […] The function of the random structures can be presumed to destabilize the terminator hairpin and turn “ON” the gene expression. The un-bound trajectories are referred to as the “non-terminator” conformations to distinguish from the traditionally defined anti-terminator conformation. […] To assess the mode of allosteric modulation (tilt-equilibrium or induced-fit), the mechanical unfolding assay was performed in the presence of guanine salts ranging from 1 nM to 1 μM. […] Had this been the case, a gradual shift would have been observed in the equilibrium toward the terminator conformation according to the tilt-equilibrium model. […] Thus, at 16 pN, the terminator fluctuates between the open and the closed states, observed as Y*↔Y and Z*↔Z in FIG. 23A. […] The Keq˜0.1
[formula] implied that the hairpin preferred the open state (90%) at 16 pN (the Keq˜1 at 15.6 pN). The expression platform dynamics and the unfolding scheme are shown in FIGS. 27A-B. That the bi-stabilities are due to the terminator was further confirmed by subjecting the FL-mutant to similar cycles (FIG. 23B). […] The findings thus underscore that only the guanine induces a terminator conformation to the expression platform. Transition Y→Z* (ΔX=14±2.5 nm) indicated a complete unfolding of the aptamer (FIGS. 27A-B).
In a constant-force (CF) experiment, the RNA is held at a preset force through feedback control. The preset force typically fluctuated around the mean with a standard deviation ±0.15 pN. In this mode, data is recorded from 4-40 kHz to capture the fast intermediates. The plots are shown as extension vs. time (as in FIG. 6A). In force-jump (FJ) assay, the force is suddenly jumped from one force to another, and then held constant thereafter, as shown in FIGS. 23A-B.

Regarding `Nc1nc(N)c2[nH]cnc2n1` [DAP, 2,6-diaminopurine], the dissociation constant (Kd) at guanine-riboswitch was approximately 10 µM.

B1: FL xpt mRNA: full-length wild-type guanine riboswitch sequence comprising the aptamer domain and expression platform (SEQ ID NO: 12) (nucleic acid)
chain: AAUAUAAUAGGAACACUCAUAUAAUCGCGUGGAUAUGGCACGCAAGUUUCUACCGGGCACCGUAAAUGUCCGACUAUGGGUGAGCAAUGGAACCGCACGUGUACGGUUUUUUGUGAUAUCAGCAUUGCUUGCUCUUUAUUUGAGCGGGCAAUGCUUUUUUUAUUCUCAUAACGGAGGUAGACAGGAUG
modifications: aptamer_domain (14)..(82); expression_platform (83)..(188)
With B1, in series [1] (1 μM guanine), the “Force of second transition (unfolding of the 69-nt aptamer)” value was 17.9±0.9 pN, the “Transition distance ΔXa (aptamer)” value is reported as 25-30 nm and the “Transition distance ΔXt (terminator)” value was approximately 15±3 nm. In addition, in series [1] (1 μM guanine, n=1200 traces), the “Melting force of the 35-nt terminator hairpin” value was found to be 16.1±0.5 pN. Further, in series [2] (15.6 pN, +G), the “Keq of terminator hairpin” value is given as approximately 1. Moreover, in series [2] (16 pN, +G), the “Keq of terminator hairpin” value was approximately 0.1, the “Terminator hairpin in the open state” value turned out to be 90% and the “ΔX of transition Y→Z* (complete unfolding of the aptamer)” value is on record as 14±2.5 nm. In addition, in series [2] (16 pN, +G (FIG. 23A: 200 nM guanine)), the “Change in extension of terminator open/closed bi-stabilities (Y*↔Y, Z*↔Z)” value is listed as 15±1.7 nm.

B2: FL-mutant: full-length mutant guanine riboswitch sequence comprising the aptamer domain and expression platform (SEQ ID NO: 13) (nucleic acid)
chain: AAUAUAAUAGGAACACUCAUAUAAUCGCGUGGAUAUGGCACGCAAGUUUCUACCGGGCACCGUAAAUGUCCGACUAUGGGUGAGCAAUGGAACCGCACGUGUACGGUUUUUUGUGAUAUCAGCAUUGCUUGCUCUUUAUUUGAGCGGCGAAUCGUUUUUUUAUUCUCAUAACGGAGGUAGACAGGAUG
modifications: aptamer_domain (14)..(82); expression_platform (83)..(188)
B2: the “16.0 pN terminator transition (in words)” value in series [1] (force-extension curve) was “abolished”. Also, the “Terminator hopping (in words)” value in series [2] (75 traces, 200 nM guanine) is “without exhibiting a terminator hopping”.
